Earlier results in paper PMC3777542.

How the values were obtained:
[1] = molecular target: AP-2 hemicomplex (Homo sapiens) (UniProt O95782); assay: SPR
Hck SH3 (Homo sapiens) = Hck SH3 (Homo sapiens) (UniProt P08631)
[2] = molecular target: CD4 cytoplasmic tail (Homo sapiens) (UniProt P01730)
Hck (Homo sapiens) = Hck (Homo sapiens) (UniProt P08631)

Chain of UniProt O95782 (O95782 whole entry, chain 1 of 2): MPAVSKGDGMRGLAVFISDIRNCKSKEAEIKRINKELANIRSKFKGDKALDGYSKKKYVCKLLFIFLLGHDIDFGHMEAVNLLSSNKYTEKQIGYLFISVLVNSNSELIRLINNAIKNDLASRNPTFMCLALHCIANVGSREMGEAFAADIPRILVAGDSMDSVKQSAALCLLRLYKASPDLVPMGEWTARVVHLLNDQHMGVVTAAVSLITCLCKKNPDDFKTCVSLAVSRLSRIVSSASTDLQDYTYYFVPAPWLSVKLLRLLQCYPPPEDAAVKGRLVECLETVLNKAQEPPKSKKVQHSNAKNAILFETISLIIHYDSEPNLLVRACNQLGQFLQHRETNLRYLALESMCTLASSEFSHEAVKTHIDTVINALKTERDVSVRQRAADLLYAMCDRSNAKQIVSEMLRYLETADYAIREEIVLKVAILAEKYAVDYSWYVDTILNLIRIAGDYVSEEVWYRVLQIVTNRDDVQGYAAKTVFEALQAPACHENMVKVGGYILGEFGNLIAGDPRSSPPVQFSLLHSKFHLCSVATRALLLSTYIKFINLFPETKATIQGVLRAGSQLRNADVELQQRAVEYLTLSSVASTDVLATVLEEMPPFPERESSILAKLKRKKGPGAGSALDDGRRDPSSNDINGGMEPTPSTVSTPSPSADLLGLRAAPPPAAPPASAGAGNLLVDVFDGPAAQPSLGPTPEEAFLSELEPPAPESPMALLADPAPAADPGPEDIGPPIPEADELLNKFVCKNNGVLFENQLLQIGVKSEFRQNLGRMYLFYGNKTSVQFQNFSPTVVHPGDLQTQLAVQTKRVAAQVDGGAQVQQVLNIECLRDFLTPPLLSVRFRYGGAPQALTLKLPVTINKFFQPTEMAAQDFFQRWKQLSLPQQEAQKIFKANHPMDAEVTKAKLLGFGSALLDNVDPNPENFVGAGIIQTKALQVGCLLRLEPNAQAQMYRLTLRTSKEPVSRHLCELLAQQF
Chain of UniProt O95782 (B2R4Z4 whole entry, chain 2 of 2, further chain): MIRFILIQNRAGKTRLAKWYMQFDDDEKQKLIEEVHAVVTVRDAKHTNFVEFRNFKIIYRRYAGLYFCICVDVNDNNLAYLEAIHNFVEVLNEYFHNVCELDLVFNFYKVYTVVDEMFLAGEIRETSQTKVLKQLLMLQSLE

Substance: Nef (from UniProt P04324)
- Kd [1]: 6000 nM
- Kd (Hck SH3 (Homo sapiens)): 260 nM
- Kd [2]: 1000 nM
- Kd (Hck (Homo sapiens)): 200 nM
